The source of these data is article PMC6770530, “Tumor Uptake of Triazine Dendrimers Decorated with Four, Sixteen, and Sixty-Four PSMA-Targeted Ligands: Passive versus Active Tumor Targeting” (Biomolecules, 2019).

Data set [1] deals with T1, PSMA (Homo sapiens, UniProt Q04609).
T1 construct: expressed in transfected cells; host or cells: PC3-PIP cells (PSMA positive)
More on the design: method as in PMID 15027864, PMID 25822623. The following applies: cited from earlier work.

Data set [2] addresses T1, PSMA. As to the kind of experiment: Competitive cell-binding assay with 125I-labeled PSMA radioligand in PC3-PIP cells. The following applies: read-out: IC50 (displacing 50% of the 125I-labeled PSMA radioligand bound to PC3-PIP cells), room temperature 2 h, n = 4. The procedure:
A reported PSMA ^125I-radioligand [21] was used as a PSMA-specific radioligand in the assay. PC3-PIP cells were suspended in Tris-buffered saline (TBS) and seeded on multiwell DV plates (Millipore) with 5 × 10^4 cells per well. […] The unbound ^125I-radioligand was removed by filtration. The wells were rinsed five times with cold TBS buffer. The filters were then collected and their radioactivity was measured on a 2480 automatic gamma counter (PerkinElmer).

Data set [3] has as its system PC3-PIP (PSMA positive) and PC3-FLU (PSMA negative) cells. As to the kind of experiment: Cell uptake of 64Cu-labeled dendrimers in PC3-PIP and PC3-FLU cells. It counts as cell-based. The following applies: 64Cu-labeled dendrimer, 1 h at 37 °C, n = 3. The procedure: Cell uptake experiments were conducted in the PSMA positive PC3-PIP cell lines and the PSMA negative PC-FLU cell lines. The cells (5.0 × 10^5) were seeded to a 6-well plate and incubated at 37 °C overnight in a humidified incubator with 5% CO2. After being rinsed with binding buffer (20 mM Tris, 150 mM NaCl, pH 7.4), the cells in binding buffer (500 µL) were incubated at 37 °C with ~6.0 × 10^5 CPM of ^64Cu-labeled dendrimers for 1 h, washed with cold binding buffer, and then trypsinized. The radioactivity of trypsinized cells was counted on a 2480 automatic gamma counter (PerkinElmer).

The next data set concerns PC3-PIP cells. Briefly: Internalization of 64Cu-labeled dendrimers in PC3-PIP cells. It counts as cell-based. The following applies: 64Cu-labeled dendrimer, incubation 1-120 min. The procedure:
The PC3-PIP cells were used for the internalization study. The 12-well plates containing ~2.0 × 10^5 cells were incubated overnight in a humidified incubator at 37 °C with 5% CO2 and then washed with binding buffer (20 mM Tris, 150 mM NaCl, pH 7.4). Each solution of ^64Cu-labeled dendrimers (~6.0 × 10^5 CPM) in 0.4 mL of binding buffer was incubated with the cells for 1, 10, 30, 60, and 120 min, respectively, and then washed once with ice-cold binding buffer. The surface bound ^64Cu-labeled dendrimers were removed by incubating cells twice for 5 min with 0.5 mL of ice-cold low pH stripping buffer (150 mM NaCl, 50 mM glycine, pH 3.0) and collected in a culture tube. After incubation with 0.5 mL of 4 M NaOH at 37 °C for 15 min, the NaOH-solubilized cells were collected in separate culture tubes. The radioactivity of surface bound/internalized ^64Cu-labeled dendrimers was counted on a 2480 automatic gamma counter (PerkinElmer).

Data set [4] can be described thus: Serum stability assay of 64Cu-labeled dendrimers. It counts as in vitro ADME, rat. The procedure: The stability of ^64Cu-labeled dendrimers was evaluated in rat serum. […] An aliquot of sample (10 µL) was mixed with 5 mM EDTA (100-fold molar excess) and incubated at 37 °C for 10 min. The resulting solution was analyzed by a Rita Star Radioisotope TLC Analyzer.

The conditions of data set [5]: mouse, in vivo, iv, 64Cu-labeled dendrimer; for tissue uptake at 1 h: 1 h p.i.; for tissue uptake at 4 h: 4 h p.i.
For data set [6], the system named is SCID mice bearing PC3-PIP and PC3-FLU xenografts. The following applies: 64Cu-labeled dendrimer, i.v., 4 h p.i.
On the set-up of data set [7]: method as in PMID 23398590. The following applies: estimated by dynamic light scattering of unfunctionalized analogues; cited from earlier work.
[8] abbreviates: In vivo organ uptake, Left Kidney.
The mark [9] stands for this setting: In vivo organ uptake, Right Kidney.
Where [10] appears, read: In vivo tumor uptake, PC3-FLU, PSMA negative xenograft right shoulder.
[11] abbreviates: In vivo tumor uptake, PC3-PIP, PSMA positive xenograft left shoulder.

Read-outs that look alike come from different tables or passages of the source.

T1 sequence (Q04609 whole entry): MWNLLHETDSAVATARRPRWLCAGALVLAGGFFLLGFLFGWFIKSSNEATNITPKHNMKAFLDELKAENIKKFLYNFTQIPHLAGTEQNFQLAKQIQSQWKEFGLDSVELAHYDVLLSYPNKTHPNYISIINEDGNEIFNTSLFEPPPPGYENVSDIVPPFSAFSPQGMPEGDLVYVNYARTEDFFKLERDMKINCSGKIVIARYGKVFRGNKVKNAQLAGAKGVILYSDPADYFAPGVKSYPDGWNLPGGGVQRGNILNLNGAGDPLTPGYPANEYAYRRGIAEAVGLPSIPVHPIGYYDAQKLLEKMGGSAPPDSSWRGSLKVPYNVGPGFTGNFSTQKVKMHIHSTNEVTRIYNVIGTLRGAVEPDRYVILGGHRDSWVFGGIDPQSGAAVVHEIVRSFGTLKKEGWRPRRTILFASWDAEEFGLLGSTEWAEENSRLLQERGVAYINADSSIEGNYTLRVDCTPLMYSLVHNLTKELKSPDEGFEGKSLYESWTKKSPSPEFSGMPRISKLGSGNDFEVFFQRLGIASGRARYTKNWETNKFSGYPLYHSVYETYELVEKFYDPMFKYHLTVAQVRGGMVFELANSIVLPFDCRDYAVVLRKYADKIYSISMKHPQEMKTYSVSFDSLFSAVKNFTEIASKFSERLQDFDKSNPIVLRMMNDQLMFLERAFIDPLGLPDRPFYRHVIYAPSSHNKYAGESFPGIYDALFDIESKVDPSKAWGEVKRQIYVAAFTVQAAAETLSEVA

Take `O=C(O)CCC(NC(=O)NC(CCC(=O)O)C(=O)O)C(=O)O` (stereo not shown) [DUPA, 2-[3-(1,3-dicarboxypropyl)-ureido] pentanedioic acid]: at PSMA [1], the IC50 was 47 nM and the Ki was 8 nM.

As for `NCC1CCN(c2nc(NCCCOCCOCCOCCCNC(=O)CCCCCCCNC(=O)CC[C@H](NC(=O)N[C@@H](CCC(=O)O)C(=O)O)C(=O)O)nc(N3CCN(c4nc(NCCCOCCOCCOCCCNc5nc(NCCCOCCOCCOCCCNC(=O)CCC(C(=O)O)N6CCN(CC(=O)O)CCN(CC(=O)O)CCN(CC(=O)O)CC6)nc(NCCCOCCOCCOCCCNc6nc(N7CCN(c8nc(NCCCOCCOCCOCCCNC(=O)CCCCCCCNC(=O)CC[C@H](NC(=O)N[C@@H](CCC(=O)O)C(=O)O)C(=O)O)nc(N9CCC(CN)CC9)n8)CC7)nc(N7CCN(c8nc(NCCCOCCOCCOCCCNC(=O)CCCCCCCNC(=O)CC[C@H](NC(=O)N[C@@H](CCC(=O)O)C(=O)O)C(=O)O)nc(N9CCC(CN)CC9)n8)CC7)n6)n5)nc(N5CCN(c6nc(NCCCOCCOCCOCCCNC(=O)CCCCCCCNC(=O)CC[C@H](NC(=O)N[C@@H](CCC(=O)O)C(=O)O)C(=O)O)nc(N7CCC(CN)CC7)n6)CC5)n4)CC3)n2)CC1` (stereo partly shown) [G1-(DUPA)4], the half-inhibitory concentration (IC50) at PSMA [2] was 282 nM. Further, in data set [3], the “PC3-PIP to PC3-FLU cell uptake ratio” value turned out to be 10. Besides, in the data set with PC3-PIP cells, the “highest (maximum) internalization” value is on record as 49%. In data set [4], the serum stability entry is “stable in rat serum and remained intact over 24 h”. The tissue uptake at 1 h worked out at 0.08 ± 0.03 %ID/g in data set [5] (In vivo organ uptake, Bone); 0.03 ± 0.01 %ID/g in data set [5] (In vivo organ uptake, Brain); 0.16 ± 0.05 %ID/g in data set [5] (In vivo organ uptake, Heart); 53.3 ± 4.37 %ID/g in data set [5] (setting [8]); 1.03 ± 0.16 %ID/g in data set [5] (In vivo organ uptake, Liver); 0.06 ± 0.03 %ID/g in data set [5] (In vivo organ uptake, Muscle). The tissue uptake at 1 h turned out to be 56.8 ± 5.14 %ID/g in data set [5] (setting [9]), 0.18 ± 0.05 %ID/g in data set [5] (setting [10]) and 0.99 ± 0.36 %ID/g in data set [5] (setting [11]). Also, the tissue uptake at 4 h in data set [5] (In vivo organ uptake, Bone) was 0.07 ± 0.01 %ID/g; in data set [5] (In vivo organ uptake, Brain), 0.02 %ID/g; in data set [5] (In vivo organ uptake, Heart), 0.1 ± 0.02 %ID/g; in data set [5] (setting [8]) it was 58.7 ± 4.98 %ID/g; in data set [5] (In vivo organ uptake, Liver), 1.2 ± 0.2 %ID/g; in data set [5] (In vivo organ uptake, Muscle), 0.05 ± 0.01 %ID/g. Moreover, the values for the tissue uptake at 4 h in data set [5] (setting [9]), in data set [5] (setting [10]) and in data set [5] (setting [11]) were 60 ± 3.27 %ID/g, 0.13 ± 0.02 %ID/g and 0.87 ± 0.4 %ID/g, respectively. Further, the tissue uptake at 24 h was determined as 0.08 ± 0.02 %ID/g in data set [5] (In vivo organ uptake, Bone, 24 h p.i.); 0.07 %ID/g in data set [5] (In vivo organ uptake, Brain, 24 h p.i.); 0.25 ± 0.05 %ID/g in data set [5] (In vivo organ uptake, Heart, 24 h p.i.); 54 ± 5.96 %ID/g in data set [5] (In vivo organ uptake, Left Kidney, 24 h p.i.); 1.93 ± 0.15 %ID/g in data set [5] (In vivo organ uptake, Liver, 24 h p.i.); 0.13 ± 0.03 %ID/g in data set [5] (In vivo organ uptake, Muscle, 24 h p.i.). Also, the tissue uptake at 24 h is 55 ± 7.36 %ID/g in data set [5] (In vivo organ uptake, Right Kidney, 24 h p.i.); 0.33 ± 0.06 %ID/g in data set [5] (In vivo tumor uptake, PC3-FLU, PSMA negative xenograft right shoulder, 24 h p.i.); 0.81 ± 0.36 %ID/g in data set [5] (In vivo tumor uptake, PC3-PIP, PSMA positive xenograft left shoulder, 24 h p.i.); 45 to 55 %ID/g in data set [5] (level of kidney uptake, over 24 h p.i.). Moreover, the “PC3-PIP to PC3-FLU uptake ratio (in vivo)” value in data set [6] came out at 6.7 ± 3.0. In addition, the “PC3-PIP to muscle uptake ratio” value in data set [6] turned out to be 17.7 ± 5.5. The dimensions result in data set [7] is “approximately 2 nm”.
